Consider 141 substances from the supplement of paper PMC12042874.

± gives the uncertainty stated by the source.

A short description of this data set: amyloid nucleation score (Sup35N fusion, yeast selection) (log enrichment); library NNK1; higher = more nucleation; inactive = no reads after selection. The method in brief:
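Sup35N fusions to peptides of 20 random codons were expressed in psi-negative yeast, induced 24 hours with 100 μM copper sulfate, and grown 7 days at 30°C on medium lacking adenine and uracil. Input and output plasmid inserts were sequenced by Illumina. The nucleation score is the DiMSum log enrichment of output over input reads, centred on the mode score of non-aggregating sequences. Sequences with under 100 input reads were excluded.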
In the case of IKRKG, the amyloid nucleation score was 0.326 ± 0.46.
Turning to LCGDHLFWLDVGDAVGVFLA, the amyloid nucleation score stood at 0.176 ± 0.4.
The substance GNCKGKRPSRGGRCSGQ yielded an amyloid nucleation score of 1.2 ± 0.58.
In the case of RVCVLFSCWRTMYMIWNSRE it was 5.71 ± 0.061; in that of RLSGKFFICVGLKCVIWLRG, -1.09 ± 0.54; in that of AFYGVDFSSGRGLFSY, -0.574 ± 1.1.
With CSYQNCLVN the figure was -0.795 ± 0.29; with YSNWSCLYCSKSL, 7.552 ± 0.053.
In the case of KMLSMLTDRSFWLNHWSFFQ it was -0.573 ± 1.4.
Turning to DGVRTDLVILFWQCDHYEL, the amyloid nucleation score was -0.516 ± 0.43.
With TEFHAKGPTWCELSYSFAIL the figure was -0.195 ± 0.58.
The substance LGMCFENSPVNLFWAIDSQM registered an amyloid nucleation score of 1.95 ± 0.37.
With FYSNWRYDGYWDDLGMNIIV the figure was -0.372 ± 0.4; with SIWSGMLTGCFRLRSITWHN, 0.908 ± 0.24; with KVGLLWGT, 0.197 ± 0.93.
With LYVFSEKIFCRNGFSSYISL the figure was 0.855 ± 0.74.
In the case of CRSYNYLIVMKDLLPSALKT it was 1.23 ± 0.36; in that of AISYDTYYTGELSSLWSGLS, 0.666 ± 0.57; in that of GFHEIMLYYSYIKVLVIDSH, 0.387 ± 0.75.
In turn, RADWYASAGKRCGHLQG showed an amyloid nucleation score of -0.148 ± 0.3.
With DYGIVGAEVKKCLIL the figure was 0.433 ± 0.44; with RCEVESIRNGLAKAGSVTMR, 0.515 ± 0.38; with YCDVSTYMSEHTISVAQAQS, 0.284 ± 0.41.
With KWRNLSS the figure was 0.631 ± 0.89; with VACLKRW, -0.29 ± 0.42; with LSWFMGLSYIKILYYCHIYD, -0.142 ± 1.1.
In turn, FCYYKCNESGP gave an amyloid nucleation score of -0.751 ± 0.71.
With ILIEETFLS, the amyloid nucleation score entry was “inactive”.
The substance DWRNAFLLCYANRNVQTCMS showed an amyloid nucleation score of -0.673 ± 0.3.
Consider THNFEGLSVWDLKDLKCCS, for which the amyloid nucleation score stood at 5.16 ± 0.087.
With CLYICIMGRIDAISSHSQII the figure was 0.453 ± 0.43; with NGMLFCT, 0.267 ± 0.79; with ILGAI, 1.66 ± 0.58.
In the case of SYIALIELFLFDSRRGHESV it was 0.078 ± 0.35; in that of RQARFSFDLRFP, 0.567 ± 0.35; in that of NVDWSPKRNINMGGWEKWLV, 0.261 ± 0.92.
In the case of TMYTVVPNHWNNISFRALSR it was -0.909 ± 0.74.
For LPTVDMIWIRGFGFQELSWC, the amyloid nucleation score result was “inactive”.
With YLNYWFR the figure was -0.341 ± 0.28; with VAASFCYIYRRYPSLFLGSR, 0.422 ± 0.53.
CVTANRHDENITSLLWRIVQ: the amyloid nucleation score was -2.36 ± 2.4.
In the case of VDNVRPWRGYQPHSLVLPIV it was 0.516 ± 0.47; in that of NGFLTSRCMLVCMKGMV, 0.729 ± 0.34; in that of CIIVNMFYWALFYFGSEMFS, 0.738 ± 0.53.
Consider VCILFSAPDNMWFFSD, for which the amyloid nucleation score turned out to be 1.49 ± 0.45.
In the case of SYIPSISAALYFVLVMRHWL it was -0.627 ± 0.49.
Turning to TRNVQHRIRSKSTISDKQIF, the amyloid nucleation score entry was “inactive”.
In the case of GYRTLLS it was 0.372 ± 1.4; in that of YLSIKVITQGDWKCQVRVLW, -0.332 ± 0.55.
With TAGATI the figure was 0.108 ± 0.25; with WFRIKGTGTLTPLKQHYSIN, -0.355 ± 0.56; with LGTMSVYRRPRSMMGCRDQG, 0.173 ± 0.26.
With RIGETASYTL the figure was -0.09 ± 0.47; with HFFVVNQSYPNHFHLLGI, 5.05 ± 0.094; with NLGLR, 4.49 ± 0.077.
With DYSYCKVNPLNSVLSVLVLL, the amyloid nucleation score was -0.34 ± 0.29.
As to VFRALKRVISRTYCMISFLK, the amyloid nucleation score was determined as 0.458 ± 0.79.
In the case of FHSMDEHVLLILTKNSV it was 0.317 ± 0.6; in that of NTIEGV, “inactive”; in that of MRGERVYSLRNNSHQ, -0.078 ± 0.33.
With FDTGGVRRRCACVSLYGVDV the figure was 0.027 ± 0.43.
The substance YTHDIRSVGGLQESGLGVWV gave an amyloid nucleation score of -0.094 ± 1.1.
With ASRFDCEDIFGRTCGYVHYF the figure was -0.113 ± 0.79; with LSPHLPSESLGLGPMS, -0.921 ± 1.4.
With ESMRFHRGEVGPLWDVRWGA the figure was 1.61 ± 0.78; with LAGIVCEWWFGWVGDVQLAF, -0.604 ± 0.85.
In the case of IASSSTRFLYV it was 0.813 ± 0.51.
With RFNSYEVVIRVWRDSMISEG, the amyloid nucleation score is 1.09 ± 0.78.
In the case of GRLSYIIRSYSLIRV it was -1.21 ± 0.5; in that of RSVCIVF, 0.105 ± 0.43.
In the case of LKSPTWPMSHSDRLTHRLLC it was 0.004 ± 0.69.
With LWFAHNS the figure was 0.462 ± 0.59; with PRNQNMT, 0.992 ± 1; with CARNNHELVNYFKAFIPVVA, 0.751 ± 0.43.
CYFCYQGYMID: the amyloid nucleation score was -0.537 ± 0.33.
In the case of SAVQFG it was -0.539 ± 0.54; in that of VFRTLHSPSVSSGRWSSELS, -0.475 ± 0.5.
With RVGDYGKHRW the figure was 1.31 ± 0.14.
In the case of LSMWSRHSMTPRFFLGLTPV it was 0.766 ± 0.69; in that of SVRFSIETISWRGAYNRGTR, 1.98 ± 0.22.
Substance YVDVSSS had an amyloid nucleation score of 0.834 ± 0.61.
With SYLFRSRRIRYFRFMHN the figure was 3.17 ± 0.12; with KLRIRSWKVFTPNSLLVVAI, -0.893 ± 1.1; with KKFFRVLLSLSSMLVLCCFQ, -0.317 ± 1.4.
In the case of MSLFNISSHSWLKFTLCVPG it was 1.17 ± 0.66; in that of FLIFKSCLVGILRSSNKIGC, -0.469 ± 1.1; in that of DVTLMCYRQCLDMDMPIDLG, 0.733 ± 0.32.
With LVNWYTQILICTCPGHKLRR the figure was 8.156 ± 0.053; with ISDCNRMFTSLSWDMSSPLI, 1.75 ± 0.57.
Turning to ASCVKYVW, the amyloid nucleation score came to 1.31 ± 0.66.
Consider CHGKESRTVREVHDLLVYVS, for which the amyloid nucleation score is -0.408 ± 0.78.
With WYRVR the figure was -0.421 ± 1.1; with SYSINLPLLPRCN, 1.02 ± 0.57; with ISTSLSTGLGKLRESWLTYH, “inactive”.
As to GSFFTKDSDTP, the amyloid nucleation score was 0.373 ± 0.46.
NREGCIMWHRRVLARRCLTS displayed an amyloid nucleation score of 0.145 ± 0.89.
In the case of PTTEWKVVRT it was 0.808 ± 0.57.
With SIYET the figure was 0.524 ± 0.49.
In the case of MGSEVSELWGLVEVKVGDKP it was 0.617 ± 0.52; in that of LCLLCNRYRWTN, 7.041 ± 0.048; in that of PFCRSRHAGHSRSLQVEKFM, -0.004 ± 0.29.
In the case of GNLLVMVGNMRSIDKC, the amyloid nucleation score was 0.326 ± 0.3.
With GTQMVLFDY, the amyloid nucleation score worked out at 1.12 ± 0.58.
With SQAETLYFYVCQVLRGQYYD the figure was 0.305 ± 0.32.
In the case of KGFVDNYVTVIVVWT it was 1.64 ± 0.18; in that of NRCCVPTKATN, 0.27 ± 0.53.
In the case of TTNMRLFLLYNTTLVMSFNV it was 1.88 ± 0.16; in that of ADILWARFLWMSEGIH, 0.054 ± 0.23; in that of RHVGVAGFRFLPGPCDWPAR, 3.94 ± 0.14.
Turning to TLWTWTSYRVVLYSSSVKLG, the amyloid nucleation score was -0.451 ± 0.32.
LRFRFSLANAEGLMLPVRHK registered an amyloid nucleation score of -0.216 ± 0.48.
In the case of FKEYQRNA it was -1.04 ± 2.7; in that of LGRSGKMTT, -0.032 ± 0.54; in that of WVSSEWISTC, -0.268 ± 1.4.
With LIWAVLCVKHTKEYVWLAHL the figure was -0.469 ± 0.54; with RWYVFWQSMGCVRSGVWVKG, 0.195 ± 0.31.
In the case of MPLYLVCDFLNYGFVISVSS it was 4.42 ± 0.095; in that of WCQKYNFRCSVLDLTFSLLW, 6.71 ± 0.069; in that of CISLTCVVYGSML, 7.213 ± 0.048.
LDSAYSGGKCYTWFNIRRFV had an amyloid nucleation score of 0.361 ± 0.86.
WLGRYQLLWLALGWIITRRG returned an amyloid nucleation score of 1.51 ± 0.47.
In the case of DGSGRGRALTVTIDWAVQLV it was 0.26 ± 0.88.
With IHTVTLNNHSSNGDCSSFNI the figure was -0.453 ± 0.43.
The substance IINMMLSHRDNWLFYMSFVG returned an amyloid nucleation score of -0.308 ± 0.42.
With CKSGDLSECCRIWHRWA the figure was 0.048 ± 0.27.
In the case of SHVEVDEEQVFSMSMVPTGE it was -0.106 ± 0.46.
Turning to NFHFVMGISVIRRLMSESQS, the amyloid nucleation score is -0.366 ± 0.66.
In the case of LAVTFQGIGFSYSILHITTY it was -0.164 ± 0.44; in that of MYASELSLKPATYSWK, -0.646 ± 0.42.
In the case of ELSSLGTCNCFHIRVSWGYM it was 0.99 ± 0.37; in that of LNKVWFSWSRDKVRYTGMLV, -0.857 ± 0.48; in that of ERDCPYRTMGLRCVNYRFRG, 3.64 ± 0.14.
In the case of YSYFSPDFRRSQHQGGVCPA it was 0.329 ± 0.53; in that of RVWCLRTLKCLIAAR, 0.189 ± 0.45.
In the case of FDVGSFTGIGV, the amyloid nucleation score amounted to 0.115 ± 0.77.
With LNRFVPASRWDHLHL the figure was -0.353 ± 1.7; with ESFILVFGGCCNWFGCVYLM, 6.537 ± 0.06; with RKRVCSGLRSFWSFFRCLRV, -0.711 ± 2.1.
In the case of MDLNEQTEYLLLASRFPMYY it was “inactive”; in that of YMWFMNRSILIIAELFVVFT, -0.287 ± 0.48.
On to GKEYYAIPMKNDGIARVNLR, for which the amyloid nucleation score was 0.875 ± 0.28.
